This note sets out measurements from US20240150466A1 (DYNAMICURE BIOTECHNOLOGY, published 2024).

Positions count from the first letter of the chain named. Like-named read-outs stand apart in the source and are kept apart here.

Broadly, the Kd is the equilibrium constant for the complex coming apart.

Experiment [1] has as its target T1, mouse IGFBP7 displayed on cells (HEK293T or CHO-K1) (mouse, UniProt Q61581 26-281).
T1 construct: whole, on cells;domain: CD80 transmembrane domain; also called mIGFBP7; mIGFBP7-HEK cells; not shown: linker; CD80 transmembrane domain
T1 sequence (looked up): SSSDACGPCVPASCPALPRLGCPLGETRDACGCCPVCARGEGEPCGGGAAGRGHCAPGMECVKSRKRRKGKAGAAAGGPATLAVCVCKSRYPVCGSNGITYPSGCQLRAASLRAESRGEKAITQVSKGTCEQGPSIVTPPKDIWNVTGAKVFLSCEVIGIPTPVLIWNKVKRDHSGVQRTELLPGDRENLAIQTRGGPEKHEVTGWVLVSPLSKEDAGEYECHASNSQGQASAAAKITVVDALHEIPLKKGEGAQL
Briefly: FACS on mIGFBP7-expressing CHO-K1 cells (FIG. 5).

For experiment [2], the target named is T2, human IGFBP7 recombinant protein (UniProt Q16270 27-282, biotinylated with EZ-LINK NHS-PEG4 biotin in the BLI assays (sites not given)).
T2 chain: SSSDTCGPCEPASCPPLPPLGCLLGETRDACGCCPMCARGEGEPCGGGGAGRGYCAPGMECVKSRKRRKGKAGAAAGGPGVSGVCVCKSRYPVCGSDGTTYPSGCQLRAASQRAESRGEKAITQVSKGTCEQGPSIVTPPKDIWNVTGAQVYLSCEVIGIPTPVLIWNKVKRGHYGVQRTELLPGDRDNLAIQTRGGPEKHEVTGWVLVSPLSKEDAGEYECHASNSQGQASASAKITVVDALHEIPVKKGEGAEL
Briefly: BLI. (In BLI a coated tip is dipped into the sample, and binding shifts an interference pattern.)

The target in experiment [3] is T3, mouse IGFBP7 recombinant protein (mouse, UniProt Q61581 26-281, limits assumed, biotinylated with EZ-LINK NHS-PEG4 biotin in the BLI assays (sites not given)).
T3 construct: Soluble protein in ELISA and BLI; also called mIGFBP7
T3 sequence (looked up): T1 sequence (looked up)
Briefly: BLI (Octet QKe), biotinylated IGFBP7 on streptavidin biosensors (FIG. 10). How it is done:
(§1) The binding affinity of anti-IGFBP7 nanobody Fc-fusion constructs (e.g., VHH-Fc-fusion constructs) were determined with bio-layer interferometry (BLI) using Octet QKe (Fortebio). Human, mouse, and cynomolgus IGFBP7 were biotinylated using EZ-LINK NHS-PEG4 biotin (Thermo Fisher Scientific). Streptavidin biosensors (ForteBio) were used to load biotinylated IGFBP7 protein (300 seconds in 5 μg/mL). Baseline was stabilized for 60 seconds in 1× kinetics buffer (ForteBio) before anti-IGFBP7 Fc-fucion proteins (serial dilution) were allowed to associate for 300 seconds with captured hIGFBP7 or mIGFBP7. Then the sensors were dissociated in 1× kinetics buffer for 600 seconds. Data analysis was performed on ForteBio Data Analysis HT 11.1 software.

Experiment [4] concerns the target T1, mouse IGFBP7 displayed on cells …. Briefly: flow cytometry on mIGFBP7-HEK cells (FIG. 13). How it is done: (§2) After washing with FACS buffer, the cells were incubated with Alexa Fluor 488 conjugated anti-mouse IgG antibody (Jackson ImmunoResearch) for 30 minutes in 4° C. After washing with FACS buffer twice, the samples were acquired in NovoCyte Flow Cytometer and analyzed by NovoExpress software.
A general note: In flow cytometry, cells or beads pass a laser one at a time.

Experiment [5] deals with T2, human IGFBP7 recombinant protein. The experiment in a line: BLI.
Experiment [6] deals with T4, mouse IGFBP7 recombinant protein (mouse, UniProt Q61581 26-281, biotinylated with EZ-LINK NHS-PEG4 biotin in the BLI assays (sites not given)).
T4 chain: T1 sequence (looked up)
Briefly: BLI.

Experiment [7] has as its target T2, human IGFBP7 recombinant protein. The experiment in a line: BLI.
Experiment [8] addresses T4, mouse IGFBP7 recombinant protein. Briefly: BLI.
In experiment [9] the target is T5, human IGFBP7 recombinant protein (human, UniProt Q16270 27-282, biotinylated with EZ-LINK NHS-PEG4 biotin in the BLI assays (sites not given)).
T5 construct: Soluble protein used for ELISA coating and, biotinylated, on streptavidin biosensors (Octet); also called hIGFBP7; biotinylated IGFBP7 protein
T5 sequence: T2 chain
Briefly: BLI (Octet QKe), biotinylated IGFBP7 on streptavidin biosensors (FIG. 9). How it is done:
as §1

Experiment [10] concerns the target T4, mouse IGFBP7 recombinant protein. The experiment in a line: BLI.
Experiment [11] addresses T6, cynomolgus IGFBP7 recombinant protein (cynomolgus).
T6 chain: T2 chain with S13A, E215D
Briefly: BLI.

Experiment [12] addresses T7, human IGFBP7 displayed on HEK293T cells (human, UniProt Q16270 27-282).
T7 construct: domain: CD80 transmembrane domain; signal peptide stated as residues 1-26; also called hIGFBP7; hIGFBP7-HEK cells; not shown: linker; CD80 transmembrane domain
T7 sequence: T2 chain
Briefly: flow cytometry on hIGFBP7-HEK cells (FIG. 13). How it is done:
as §2

B1: anti-IGFBP7 nanobody Fc-fusion construct derived from D4 (Fc isotype not told) (Fc fusion)
chain: VQLQESGGGLVQTGGSLRLSCAASGRSFTFSSYAMGWFRHAPGKEREFLTAITWSGDYTYYTDSVKGRSTISRDNAKNTVYLQLNNLKPEDTAVYYCAAKFSQVSAFFATVSEYEYWGQGTQVTVSS
notes: may be the same as D4-mIgG2a; not shown: mouse Fc fragment, mIgG2a or mIgG1
As for B1, the binding result in experiment [1] is recorded as “binds”.

B2: A1-mIgG2a nanobody Fc-fusion (Fc fusion)
chain: VQLQESGGGLVQAGGSLRLSCAASGSLFAIDKWGWYRQVAGNERELVAWRYSPVSINYGDSVKGRFTVSGDSSRKRVYLQMNSLKPDDTAVYRCAAVISGAWYWGQGTQVTVSS
notes: VHH fused with mIgG2a Fc fragment, expressed in Expi293 cells, Protein G purified; also called monoclonal A1-mIgG2a; monospecific A1-mIgG2a; not shown: mouse IgG2a Fc fragment (mIgG2a Fc)
For the molecule B2, the Kd in experiment [2] stood at 2.72 nM; in experiment [5], 2.72 nM; in [6], 25.8 nM; in experiment [7] it was 3.7 nM; in [8] it was 60.1 nM; in experiment [10], 25.8 nM. Also, the Kd in experiment [11] came to 2.41 nM. The binding result in experiment [3], in experiment [4], in experiment [9] and in experiment [12] was “binds” throughout.

B3: bispecific anti-IGFBP7 nanobody Fc-fusion construct A1-mIgG2a-D4 (bispecific antibody, V domains shown)
V domain 1: B2 chain
V domain 2: B1 chain
notes: also called A1-mIgG2a-D4-2; not shown: mouse IgG2a Fc fragment (mIgG2a Fc)
Take B3: the Kd in experiment [2] was determined as 0.193 nM; in experiment [5], 0.193 nM; in experiment [6] it was 1.74 nM; in experiment [10] it was 1.74 nM; in experiment [11] it was 0.195 nM. Also, the binding result in experiment [3], in [4], in experiment [9] and in experiment [12] was “binds” in each case.

B4: anti-IGFBP7 nanobody Fc-fusion construct derived from A1 (Fc isotype not told) (Fc fusion)
chain: B2 chain
notes: may be the same as A1-mIgG2a or A1-mIgG1; not shown: mouse Fc fragment, mIgG2a or mIgG1
Take B4: the binding result in experiment [1] is “binds”.
